# Experimental data published in patent publication US20120070432A1, “TREATMENT OF PANCREATIC CANCER USING A DR5 AGONIST IN COMBINATION WITH GEMCITABINE” (AMGEN INC., priority 2009, published 2012).
# Legend:
# [1] = test system: pancreatic cancer patients; settings: gemcitabine alone, Moore et al.; cited from earlier work
# [2] = test system: patients with previously untreated metastatic pancreatic cancer; experiment: Multi-center phase I trial of AMG 655 + gemcitabine; format: in vivo
# Source text: Example 2 describes the treatment of patients with metastatic pancreatic cancer with AMG 655 in combination with gemcitabine.
# Conatumumab (AMG 655) is an investigational, fully human agonist monoclonal antibody (IgG1) that binds human death receptor 5 (DR5), activates caspases, and induces apoptosis in sensitive tumor cells. In a multi-center phase I trial to evaluate AMG 655 +gemcitabine in metastatic pancreatic patients. The primary endpoint was dose-limiting toxicity (DLT). Secondary endpoints included toxicity, pharmacokinetics, antibody formation, objective response rate, progression-free survival (PFS), 6-month and overall survival.
# Eligible patients had previously untreated metastatic pancreatic cancer and ECOG PS (Eastern Cooperative Oncology Group Performance Status) 0 or 1. Patients were enrolled into sequential cohorts and received AMG 655 3 or 10 mg/kg IV days (D) 1 and 15 and gemcitabine 1000 mg/m^2IV D 1, 8, and 15 every 28 D. CT scans were obtained Q2 cycles.
# [3] = test system: patients with advanced solid tumors; settings: cited from earlier work
# [4] = dose cohorts 0.3, 1 and 3 mg/kg
# [5] = of 13 patients with tumor-response data
compound,measurement,setting,value
Nc1ccn([C@@H]2O[C@H](CO)[C@@H](O)C2(F)F)c(=O)n1 [gemcitabine],median overall survival (50% survival),[1],approximately 6 months
same,survival at 1 year,[1],17%
AMG 655: fully human monoclonal agonist antibody (IgG1) that binds human death receptor 5 (DR5); CAS Registry Number 896731-82-1,anti-AMG 655 antibodies,[2]; in combination with gemcitabine,No anti-AMG 655 antibodies were detected
same,effect of AMG 655 on pharmacokinetic (PK) of gemcitabine,[2]; preliminary data,no effect
same,DLTs,"[3]; 0.3, 1, 3, 10 or 20 mg/kg IV Q2W, 16 patients",No DLTs
same,AMG 655-related serious AEs,"[3]; 0.3-20 mg/kg IV Q2W, 16 patients",No
same,MTD,[3]; 0.3-20 mg/kg IV Q2W,not reached
same,reduction in tumor volume by RECIST,[3]; NSCLC patient with partial response,46%
same,time on study of partial responder,"[3]; NSCLC patient, remains on study",> 48 weeks
same,partial response,"[3]; NSCLC, tumor-response data for 13 patients",1 patient
same,grade 3 or higher AMG 655-related AEs,"[3]; both in the same patient, 0.3-mg/kg cohort",Fatigue and elevated serum lipase
same,reduction in maximum standardized uptake value (SUVmax),"[3]; colorectal cancer patient with stable disease, metabolic partial response (FDG-PET)",34%
same,half-life,[3]; [4],~240 h
same,kinetics (dose linearity),[3]; [4],dose-linear kinetics
same,anti-AMG 655 antibodies,[3]; monotherapy,No anti-AMG 655 antibodies were detected
same,progressive disease,[3]; [5],8 patients
same,stable disease,[3]; [5],4 patients
same,patients reporting AMG 655-related AEs,[3]; of 16 patients,Nine
same,treatment-related AE: fatigue,[3]; of 16 patients,3 patients
same,treatment-related AE: hypomagnesaemia,[3]; of 16 patients,3 patients
same,treatment-related AE: pyrexia,[3]; of 16 patients,4 patients
same,tolerability,[3]; up to 20 mg/kg Q2W,well tolerated
